The text below walks through data of patent JP2019218309A (dated 2019).

No end group written: not given here.

In experiment [1] the target is T1, GIP(3−42) (inactive GIP).
T1 construct: also called 非活性型GIP; 不活性型のGIP(3−42)
T1 peptide: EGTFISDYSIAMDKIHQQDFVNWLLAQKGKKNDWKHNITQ
Description: sandwich ELISA: anti-total GIP monoclonal antibody as capture, biotinylated m1 at 1 ug/mL as detection. For orientation: ELISA stands for enzyme-linked immunosorbent assay.

The target of experiment [2] is T2, GIP(1−42) (active GIP).
T2 construct: a Human (total) GIP ELISA kit was used; also called 活性型GIP; GIP(1-42)
T2 peptide: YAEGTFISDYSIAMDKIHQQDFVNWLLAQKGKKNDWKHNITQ
Description: sandwich ELISA: anti-total GIP monoclonal antibody as capture, biotinylated m1 at 1 ug/mL as detection, GIP at 8.2-2000 pg/mL.

In experiment [3] the target is T3, 測定用抗原(2): PEG化GIP(3−15) (PEGylated N-terminal 13 amino acids of inactive GIP) (also: PEGylated, site not given here).
T3 construct: also called GIP(3-15)
T3 peptide: EGTFISDYSIAMD
Description: ELISA, immobilised PEGylated peptide, hybridoma culture supernatant.

In experiment [4] the target is T4, 測定用抗原(1): PEG化GIP(1−15) (PEGylated N-terminal 15 amino acids of active GIP) (also: PEGylated, site not given here).
T4 construct: also called GIP(1-15)
T4 peptide: YAEGTFISDYSIAMD
Described as above.

B1: ハイブリドーマ9B9H5−B9株から産生されるモノクローナル抗体 (anti-active GIP monoclonal antibody of hybridoma 9B9H5-B9) (antibody, V domains shown)
VH: QVQLQQPGAELVKPGASVKLSCKASGYTFTSFWMHWVIQRPGQGLEWIGEMNPSDGRTHFNEKFKTKATLTIDTSSNTAYMELNSLTSEDSAVYYCARRMEDWGQGTLVTVSA
VL: DIKMTQSPSSMYASLGERVTITCKASQDINSYLGWFQQKPGKSPKTLIYGANRLVDGVPSRFSGSGSGQDYSLTISSLEYDDMGIYYCLQYDEFPLTFGAGTKLELKR
notes: Mouse (BALB/c) hybridoma monoclonal antibody, purified on Protein A; also called 抗活性型GIP抗体; 抗活性型GIPモノクローナル抗体
As for B1, the binding result in experiment [1] is “no binding”; in experiment [2], “binds”; in experiment [3] it was “no binding”; in experiment [4], “binds”.
